# Results from the DeepSol protein solubility set.
# Experiment: soluble on expression in E. coli; label from the status in PepcDB or PDB records
row,Sequence,soluble on expression in E. coli
1,MGSDKIHHHHHHMNVAILGNQARAMVNFWSVFIARLQADGHTVVCIIPPGDAEGDAALTSMGVRVRHYPLDRKGLNPVRDVATFAALYRIFRQERPDRLFCFTIKPVIYGATAAALARVPGRVAMITGLGYMFEADTPVKRLLNRVAVLMYRAALACVHTVFFQNEEDRAVFTAKGIVPAGTEVAMSRGTGVALDHFAPAETVTAPVTFLLVGRLIEAKGLYEYAEAARMLKARHPEARFRVLGPPEQGLGSVPMETINQWHREGVIEYMGQTRDVRPFLREASVVVLPSWREGTPCSVMEGMSMARAAIVTDAPGCREVVEDGVNGFMVPLRSPEALAAAMERFIEDPSLVQRMGRAGRDLAEREFDAEKVAAHIMRVMRLDAAPRAGGNPQ,not soluble
2,MGSDKIHHHHHHMQTFHELEQTQSVIATILRNSLQTNRINHAYIFTGDYEPLLLEAAQLFAKSLFCERRDQIEPCQTCRSCRRMDSGNLVDYYQIEPDGATIKKEQIQELMHDLSLRGLEGDRQIYVVTQSHKMTPQAANSLLKFFEEPGAGKVAILITNQPQLLLPTIRSRGQLLSFRPADRLLIGQVLSEKTGRDNELTQLAARVYPKIEDAEQALVEDWFVNARVSVLQLMEELANRPADLPLFVQEKWMSQFKNRQDARIGLELVTCFFEDVLHLKLNPSWETITYANSRPLLEQMGGKSQTTITRWLQAVLAAVKRIEANVNPQLTVERLMFDLQKG,not soluble
3,MKQLTILGSTGSIGCSTLDVVRHNPDSFRVIALVAGKNVARMAEQCLEFSPRYAVMDDTSSAEQLKIMLQQHGSRTEVLSGQQAACEMAALDEVGHVMAAIVGAAGLLPTLAAIRAGKTILLANKESLVTCGRLFMDEVKRSNARLLPVDSEHNAIFQSLPQSIQHNLGYADLEQNGVTSILLTGSGGPFRETPMCDLAAMTPDQACRHPNWSMGRKISVDSATMMNKGLEYIEARWLFNASARQMEVLIHPQSVIHSMVRYQDGSVLAQLGEPDMRTPIAHTMAWPNRVTSGAQPLDFCKLSALTFSAPDYQRYPCLKLAMEAFEQGQAATTALNAANEITVAAFLAQQIRFTDIAGLNLAVLERMDLQEPASVEDVLQVDAIAREVARKQVIRLSR,not soluble
4,MAHHHHHHMAYLPPNMAERLQMSSSSTEPTTTSSMLPAPHSSANMRHIEGLVVVPGVVKVSRSDVASQYTMPHTNNAPLLFSEPEHRAVDNSSGSNDAQLEPKDPHLGLMPHCLSCTLLTSAGAQEPDDVYGRSMPSSSAVGAVTTELECAVVPTLHASFTPGVSTSIMPAPTEAHSACGSRPLQQPRWGGNYDSGSQCVSFRGADRSNNVSGCGLRLVGDDVEWLQGSFEDSASSPREEVQLSWGHLQRQPCAGKSSAARAVPPALHDVREGTGGEKVLAAHHRFERAVQPQTQRQGVFPSADQENCQAAAMLWAAQQMAVFD,not soluble
5,MSLQSLWIYPEDTEVLGAACKSLLKALKPRYQKIALFSPISGGCEGFGECESLSSLEVHSAIDKQKALELVSTAQEELLFETILKRYDELQSTHDFVINLGYAPKFFLNALLDLNTILAKHLNAPVVAVAQTSLDHLKAMHSHILKKEAPFAIGLFVGETLEKPHFLSASLCKQQCELEASAIENLLQTKSEIITPLAFQRSLEKKAKKQIKKVVLPESEDERILKAAHRLNLMGAVGLILLGDKEAINSQAKNLNLNLENVEIINPNTSHYREEFAKSLYELRKSKGLSEQEAERLALDKTYFATMLVHLGYAHAMVSGVNHTTAETIRPALQIIKTKPGVSLVSSVFLMCLDTQVFVFGDCAIIPNPSPKELAEIATTSAQTAKQFNIAPKVALLSYATGNSAQGEMIDKINEALTIVQKLDPQLEIDGPLQFDASIDKGVAKKKMPNSQVAGQASVFIFPDLNAGNIAYKAVQRSAKAVAIGPILQGLNKPINDLSRGALVEDIVNTVLISAIQAQDYEGHHHHHH,not soluble
6,GPPSGKTYMGWWGHMGGPKQKGITSYAVSPYAQKPLQGIFHNAVFNSFRRFKSQFLYVLIPAGIYWYWWKNGNEYNEFLYSKAGREELERVNV,soluble
7,SLTRRADDGPLVLTGANAPMSATTASGQADASFFDPGLLRRFGITRVGDVTGLDIIGIPVWFAARPNSRGLSVSQGKGLFADQARLSAIMEAIEGAVAEETRRHVTAFGSIEEMRNKGVPLIPFETVGRIDPDALDLRKERAWVKGTSIRQQQEVFAPYELIGMDFRAEFPWDRQAFRMSSQGLAAGFEQDHAVLHALLELIENDASFLVDTFETRAITPQPFLLSAGMDSLLDDLIQHLSNIGLPPSFFDLTNALGVPVVMASLPRSLQAEDGPATRSAAGAACRPNTHAAAMAALLEAIQSRLTDISGARDDLSPLRYQRDLSTSGPTASRAQPLRQMPADLNFPESDLSLPPWRQLAEHLFARGIEDIHVFPLETEVSGLHVVRILASGLAPAGGGLQHISPRTLDHLLNLGGT,soluble
